Measurements published in patent US20220227882A1 (TRUSTEES OF TUFTS COLLEGE, published 2022).

T1: Recombinant human ADAM9 (R&D Systems, 939-AD-020) (human, UniProt Q13443 29-697)
T1 sequence (looked up): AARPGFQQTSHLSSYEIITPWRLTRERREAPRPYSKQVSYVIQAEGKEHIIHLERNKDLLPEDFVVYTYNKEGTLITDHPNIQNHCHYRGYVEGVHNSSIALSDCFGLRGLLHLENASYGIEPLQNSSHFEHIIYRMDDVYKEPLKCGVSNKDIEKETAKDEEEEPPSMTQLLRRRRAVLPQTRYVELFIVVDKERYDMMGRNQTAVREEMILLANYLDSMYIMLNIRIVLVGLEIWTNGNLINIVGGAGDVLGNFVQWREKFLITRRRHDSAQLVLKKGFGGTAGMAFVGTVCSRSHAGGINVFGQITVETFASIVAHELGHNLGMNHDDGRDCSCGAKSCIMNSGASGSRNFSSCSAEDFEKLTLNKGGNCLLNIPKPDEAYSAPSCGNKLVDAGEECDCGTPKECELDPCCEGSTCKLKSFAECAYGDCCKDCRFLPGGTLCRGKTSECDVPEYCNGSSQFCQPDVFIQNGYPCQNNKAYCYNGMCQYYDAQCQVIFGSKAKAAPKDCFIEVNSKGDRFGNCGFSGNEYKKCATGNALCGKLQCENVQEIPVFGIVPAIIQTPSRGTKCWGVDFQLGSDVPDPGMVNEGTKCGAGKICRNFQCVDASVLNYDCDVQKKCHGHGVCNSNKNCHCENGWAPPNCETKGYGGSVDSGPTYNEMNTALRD

T2: Recombinant human ADAM12 (Acro Biosystems, AD2-H5228) (human, UniProt O43184 208-708)
T2 sequence (looked up): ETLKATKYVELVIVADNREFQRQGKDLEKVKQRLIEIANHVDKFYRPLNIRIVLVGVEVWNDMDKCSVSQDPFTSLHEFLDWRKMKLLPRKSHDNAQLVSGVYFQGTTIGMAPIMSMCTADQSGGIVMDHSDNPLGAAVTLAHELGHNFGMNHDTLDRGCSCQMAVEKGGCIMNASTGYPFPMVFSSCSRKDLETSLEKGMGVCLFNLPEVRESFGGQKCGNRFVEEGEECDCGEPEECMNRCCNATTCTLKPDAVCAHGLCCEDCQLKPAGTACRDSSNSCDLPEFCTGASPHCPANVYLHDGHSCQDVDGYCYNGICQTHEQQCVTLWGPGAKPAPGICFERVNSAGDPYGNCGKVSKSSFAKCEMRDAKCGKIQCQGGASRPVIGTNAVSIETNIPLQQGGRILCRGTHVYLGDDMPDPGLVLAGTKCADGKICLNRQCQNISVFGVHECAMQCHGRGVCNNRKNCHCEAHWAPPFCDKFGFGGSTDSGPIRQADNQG

T3: ADAM33 expressed in transiently transfected HEK293 cells (HEK293-ADAM33) (UniProt Q9BZ11 204-813)
T3 construct: whole, on cells; Expression in HEK293 cells is mainly intracellular; also called HEK293-A33; A33
T3 sequence (looked up): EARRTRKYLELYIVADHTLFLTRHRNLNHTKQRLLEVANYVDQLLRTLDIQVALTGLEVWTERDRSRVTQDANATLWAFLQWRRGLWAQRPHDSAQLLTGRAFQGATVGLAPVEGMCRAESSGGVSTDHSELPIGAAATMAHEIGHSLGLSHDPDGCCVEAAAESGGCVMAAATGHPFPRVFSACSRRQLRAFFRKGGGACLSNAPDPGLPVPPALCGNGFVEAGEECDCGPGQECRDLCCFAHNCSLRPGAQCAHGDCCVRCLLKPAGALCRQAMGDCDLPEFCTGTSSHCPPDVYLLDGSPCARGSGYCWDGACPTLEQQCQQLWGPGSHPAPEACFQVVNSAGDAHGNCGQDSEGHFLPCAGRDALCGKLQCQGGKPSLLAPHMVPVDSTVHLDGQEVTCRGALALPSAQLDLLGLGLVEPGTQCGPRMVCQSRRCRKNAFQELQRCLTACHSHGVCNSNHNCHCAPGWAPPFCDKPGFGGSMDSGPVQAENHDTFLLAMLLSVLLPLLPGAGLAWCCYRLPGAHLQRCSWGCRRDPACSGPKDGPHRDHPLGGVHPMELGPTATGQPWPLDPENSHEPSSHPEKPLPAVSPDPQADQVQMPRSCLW


Columns and labels:
[1] = target: T1, Recombinant human ADAM9 (R&D Systems, …); assay: ELISA, recombinant ADAM9
Method: (§1) ELISA assays were also used to test hybridoma clones, subclones and purified ADP antibodies for specificity of ADAM8 binding, i.e., binding to rHuADAM8 (Acro Biosystems, AD8-H5223) was compared to binding to closely related recombinant human ADAM proteins: […], ADAM12 (Acro Biosystems, AD2-H5228) and ADAM15 (Sino Biological, 10517-H08H). For analysis of clones and subclones, 50 μl of cell supernatants were used. A test bleed sample (1:1000) was used as a positive control. Hybridoma culture medium or a pre-bleed serum sample (1:1000) was used as a negative control. Purified mouse ADPs were assessed at 1 μg/ml vs normal mouse IgG and with a test bleed sample as a positive control. ADP binding was detected with a goat anti-mouse IgG (Fc specific)-peroxidase antibody (1:5000, Sigma-Aldrich, A0168).

[2] = target: T2, Recombinant human ADAM12 (Acro …); assay: ELISA, recombinant ADAM12
Method: as §1

[3] = target: T3, ADAM33 expressed in transiently …; assay: FACS, fixed and permeabilized HEK293-ADAM33 cells
Method: ADP2 and ADP13 were also tested for cross-reactivity to the ADAM8 related protein ADAM33 using a variation of the above FACS protocol, which included steps for cell fixation and permeabilization. FACS was performed as an ELISA assay was precluded due to the lack of commercially available recombinant ADAM33. Cell fixation and permeabilization steps were needed as ADAM33 expression in HEK293 cells is primarily intracellular. HEK293 cells were transiently transfected over a 48-hr period with an ADAM33 construct (Clone ID HsCD00419548, Harvard Plasmid Information Database) or a control EV DNA (Plasmid #25890, Addgene) using Lipofectamine® 2000. Single cell suspensions (1×10⁶ cells/ml) were prepared in FACS buffer. Cell samples (1 ml) were centrifuged, resuspended in 50 μL cold 4% paraformaldehyde and incubated for 20 minutes at 4° C. in the dark with occasional shaking. Cells were then washed once with 1 ml FACS buffer, and then twice with 0.1% saponin FACS buffer. Samples were exposed to primary antibodies in 50 μL of 0.1% saponin FACS buffer for 30 minutes at 4° C. For ADP2, ADP13 and their respective IgG2b and IgG1 isotype matched controls, 2 μg of antibody were used. […] After three washes in 0.1% saponin FACS buffer, cells were resuspended in 500 μL FACS buffer and analyzed on a BD FACSCalibur™ machine.

Binder | binding result [1] | binding result [2] | binding result [3]
ADP3 (antibody, IgG1, V domains shown) VH: EVKLEESGGGLVQPGGSMKLSCAASGFTFSDAWMDWVRQSPEKGLEWVAEIRGKVNNLATYYVESVKGRFTISRDDSKSSVYLQMNSLRAEDTGIYYCLGRYDATYAMDYWGQGTSVTVSS VL: DVVMTQTPLSLPVSLGDQASISCRSSQSLVHSDGNTYLHWYLQKPGQSPKLLIYKLSNRFSGVPDRFSGSGSGTDFTLKISRVEAEDLGVYFCSQSTHVPWTFGGGTKLEIK | no binding (tested: 1 µg/ml) | no binding (tested: 1 µg/ml) | 
ADP2 (antibody, V domains shown, also called mADP2; mouse ADP2) VH: EVKLVESGGGLVQPGGSLSLSCAASGFSFPDYYMSWVRQPPGKALEWLGFIRDSANGYTTEYIASVKGRFTFSRDNSQSILYLQMNALRAEDSATYYCARYSRYYGMDYWGQGTSVTVSS VL: SIVMTQTPKILLVSAGDRVTITCKASQTVNYDVAWYQQKPGQSPKPVIYFASNRYTGVPDRFTGSGFGTDFTFTISTVQAEDLAVYFCQQDYSAPWTFGGGTKLEIK |  |  | no binding (tested: 2 µg antibody per sample)
ADP13 (antibody, IgG1, V domains shown, also called mADP13; mouse ADP13) VH: EVQLQQSGPEMVKPGTSVKISCKASGYTFTDYYINWVKQSHGKSLEWIGDISPNIGGATYNPKFKGKAILTVDKSARTAYMELRSLTSEDSAVYCCTRGGSSYPYFYAMDYWGQGTSVTVSS VL: DIVMSQSPSSLAVSVGEKVTMSCKSSQSLLYSSNQKKYLAWYQQKPGQSPKLLIYWASTRESGVPDRFTGSGSGTDFTLTISSVKAEDLAVYYCQQFYSYPYTFGGGTKLEINR |  |  | no binding (tested: 2 µg antibody per sample)
